This assay has as its target human medin (human) (UniProt Q08431). Nature of the assay: thioflavin T aggregation kinetics.

Take “human medin (from UniProt Q08431 268-317) (peptide)”: the critical concentration of aggregation is 14 nM, the critical monomer concentration for aggregation lay in the range of 10 to 25 nM and the elongation rate constant k+ (monomer addition to fibril ends) amounted to 5e+07 M⁻¹ s⁻¹.

The values are drawn from PMC13237374.
